Blank lines part the entries; values can stand above or below the binder they belong to.
Assays:
[1] = target: T1, Shh receptor molecules on C3H10T1/2 cells (UniProt Q61115 1-1434); assay: cell-based or functional assay
T1 sequence (looked up): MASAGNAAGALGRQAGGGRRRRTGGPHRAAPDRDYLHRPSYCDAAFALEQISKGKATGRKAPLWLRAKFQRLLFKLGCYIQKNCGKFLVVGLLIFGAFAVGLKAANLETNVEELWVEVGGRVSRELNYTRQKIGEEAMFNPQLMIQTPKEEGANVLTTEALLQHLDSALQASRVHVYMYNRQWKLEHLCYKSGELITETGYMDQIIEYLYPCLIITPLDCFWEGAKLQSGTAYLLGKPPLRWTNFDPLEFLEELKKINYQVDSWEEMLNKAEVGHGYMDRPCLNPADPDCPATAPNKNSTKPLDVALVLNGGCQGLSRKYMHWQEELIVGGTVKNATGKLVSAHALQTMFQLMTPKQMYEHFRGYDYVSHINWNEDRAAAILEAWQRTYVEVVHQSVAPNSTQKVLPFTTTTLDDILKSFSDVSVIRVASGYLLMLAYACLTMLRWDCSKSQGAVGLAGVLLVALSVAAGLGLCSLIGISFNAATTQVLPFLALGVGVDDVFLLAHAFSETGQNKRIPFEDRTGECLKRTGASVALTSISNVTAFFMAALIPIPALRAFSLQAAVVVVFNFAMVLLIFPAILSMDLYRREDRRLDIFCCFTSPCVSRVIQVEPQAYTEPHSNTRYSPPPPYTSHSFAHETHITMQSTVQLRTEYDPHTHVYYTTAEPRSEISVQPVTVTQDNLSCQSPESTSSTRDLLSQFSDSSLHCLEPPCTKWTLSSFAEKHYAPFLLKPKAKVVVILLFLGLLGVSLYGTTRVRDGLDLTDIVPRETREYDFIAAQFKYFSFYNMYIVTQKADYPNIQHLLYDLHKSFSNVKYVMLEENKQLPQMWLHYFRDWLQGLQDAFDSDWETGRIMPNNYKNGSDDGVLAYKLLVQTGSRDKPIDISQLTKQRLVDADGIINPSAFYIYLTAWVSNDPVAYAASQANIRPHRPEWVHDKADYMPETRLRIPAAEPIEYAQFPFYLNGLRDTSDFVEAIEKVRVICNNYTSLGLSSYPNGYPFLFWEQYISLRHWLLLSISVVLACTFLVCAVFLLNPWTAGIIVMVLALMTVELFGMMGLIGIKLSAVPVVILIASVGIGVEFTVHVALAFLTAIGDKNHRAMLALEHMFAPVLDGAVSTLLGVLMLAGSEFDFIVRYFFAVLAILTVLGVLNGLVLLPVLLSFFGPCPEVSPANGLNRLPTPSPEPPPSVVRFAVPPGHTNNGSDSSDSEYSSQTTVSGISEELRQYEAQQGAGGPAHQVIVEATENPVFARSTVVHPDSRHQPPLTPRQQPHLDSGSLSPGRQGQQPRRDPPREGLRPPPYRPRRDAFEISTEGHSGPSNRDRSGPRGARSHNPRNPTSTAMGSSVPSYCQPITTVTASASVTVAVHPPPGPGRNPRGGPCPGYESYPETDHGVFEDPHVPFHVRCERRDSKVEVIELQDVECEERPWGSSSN

[2] = target: T1, Shh receptor molecules on C3H10T1/2 …; assay: cell-based or functional assay; remark: listed apart in the source

B1: mutant 22 (Shh C1II/A169C + S154C), Pyrene-modified (ligand)
chain: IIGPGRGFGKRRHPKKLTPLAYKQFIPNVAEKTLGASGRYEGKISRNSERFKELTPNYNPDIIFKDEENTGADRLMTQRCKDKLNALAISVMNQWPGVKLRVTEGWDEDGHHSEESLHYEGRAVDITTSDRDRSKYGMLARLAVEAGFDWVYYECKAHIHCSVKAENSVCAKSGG
modifications: N-(1-pyrenyl) maleimide on thiol of Cys154, Cys169
- Potency (IC50) in C3H10T1/2 assay (alkaline phosphatase induction) [1]: 3 µg/mL

B3: mutant 23 (Shh C1II/A169C + K82C), unmodified (ligand)
chain: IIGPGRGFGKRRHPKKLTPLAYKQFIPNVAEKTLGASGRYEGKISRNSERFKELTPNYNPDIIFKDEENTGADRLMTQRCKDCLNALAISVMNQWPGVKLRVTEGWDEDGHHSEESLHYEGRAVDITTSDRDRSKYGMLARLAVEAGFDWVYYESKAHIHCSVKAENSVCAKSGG
- Potency (IC50) in C3H10T1/2 assay (alkaline phosphatase induction) [1]: 0.2 µg/mL

B5: mutant 21 (Shh C1II/A169C + N92C), 5 K PEG (ligand)
chain: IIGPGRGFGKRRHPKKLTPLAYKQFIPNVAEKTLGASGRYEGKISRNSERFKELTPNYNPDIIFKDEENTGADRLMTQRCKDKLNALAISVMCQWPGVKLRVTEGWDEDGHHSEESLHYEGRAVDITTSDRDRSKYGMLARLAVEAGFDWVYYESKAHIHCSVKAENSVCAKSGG
modifications: 5 K PEG maleimide on thiol of Cys92, Cys169
- Potency (IC50) in C3H10T1/2 assay (alkaline phosphatase induction) [1]: > 20 µg/mL

B6: mutant 22 (Shh C1II/A169C + S154C), NEM-modified (ligand)
chain: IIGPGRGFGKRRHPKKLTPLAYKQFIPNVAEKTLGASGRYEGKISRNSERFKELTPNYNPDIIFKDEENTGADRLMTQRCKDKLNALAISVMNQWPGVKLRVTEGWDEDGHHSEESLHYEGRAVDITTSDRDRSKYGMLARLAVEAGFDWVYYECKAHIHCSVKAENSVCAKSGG
modifications: N-ethyl maleimide on thiol of Cys154, Cys169
- Potency (IC50) in C3H10T1/2 assay (alkaline phosphatase induction) [1]: 2 µg/mL

B7: mutant 22 (Shh C1II/A169C + S154C), 5 K PEG (ligand)
chain: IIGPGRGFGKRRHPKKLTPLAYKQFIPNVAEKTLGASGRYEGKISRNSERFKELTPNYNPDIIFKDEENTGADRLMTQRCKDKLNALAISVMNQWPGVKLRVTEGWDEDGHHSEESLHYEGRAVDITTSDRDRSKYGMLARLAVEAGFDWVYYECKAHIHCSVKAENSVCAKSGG
modifications: 5 K PEG maleimide on thiol of Cys154, Cys169
- Potency (IC50) in C3H10T1/2 assay (alkaline phosphatase induction) [1]: 5 µg/mL

B11: mutant 24 (Shh C1II/A169C + S112C), NEM-modified (ligand)
chain: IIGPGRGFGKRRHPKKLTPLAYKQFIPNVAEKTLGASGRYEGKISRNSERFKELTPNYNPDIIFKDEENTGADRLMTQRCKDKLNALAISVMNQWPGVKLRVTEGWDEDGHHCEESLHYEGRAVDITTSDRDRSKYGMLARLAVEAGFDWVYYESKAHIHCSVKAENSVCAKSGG
modifications: N-ethyl maleimide on thiol of Cys112, Cys169
- Potency (IC50) in C3H10T1/2 assay (alkaline phosphatase induction) [1]: 0.2 µg/mL

B13: mutant 22 (Shh C1II/A169C + S154C), 20 K PEG (ligand)
chain: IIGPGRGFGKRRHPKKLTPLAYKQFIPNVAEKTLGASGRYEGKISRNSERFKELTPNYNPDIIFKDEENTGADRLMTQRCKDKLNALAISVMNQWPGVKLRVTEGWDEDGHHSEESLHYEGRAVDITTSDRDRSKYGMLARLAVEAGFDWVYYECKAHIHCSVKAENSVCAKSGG
modifications: 20 K PEG maleimide on thiol of Cys154, Cys169
- Potency (IC50) in C3H10T1/2 assay (alkaline phosphatase induction) [1]: 8 µg/mL

B14: mutant 21 (Shh C1II/A169C + N92C), HPE-modified (ligand)
chain: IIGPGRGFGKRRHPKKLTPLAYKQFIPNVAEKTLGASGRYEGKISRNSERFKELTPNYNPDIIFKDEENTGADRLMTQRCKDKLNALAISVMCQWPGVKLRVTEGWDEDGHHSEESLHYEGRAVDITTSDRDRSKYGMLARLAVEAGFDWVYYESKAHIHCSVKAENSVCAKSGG
modifications: beta-(4-hydroxyphenyl) ethylmaleimide on thiol of Cys92, Cys169
- Potency (IC50) in C3H10T1/2 assay (alkaline phosphatase induction) [1]: 2 µg/mL

B17: mutant 24 (Shh C1II/A169C + S112C), 5 K PEG (ligand)
chain: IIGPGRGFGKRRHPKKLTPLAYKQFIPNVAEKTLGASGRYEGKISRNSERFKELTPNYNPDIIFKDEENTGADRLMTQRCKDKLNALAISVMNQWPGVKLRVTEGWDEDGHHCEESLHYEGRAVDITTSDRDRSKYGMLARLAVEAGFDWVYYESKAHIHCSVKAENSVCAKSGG
modifications: 5 K PEG maleimide on thiol of Cys112, Cys169
- Potency (IC50) in C3H10T1/2 assay (alkaline phosphatase induction) [1]: 0.6 µg/mL

B18: mutant 22 (Shh C1II/A169C + S154C), HPE-modified (ligand)
chain: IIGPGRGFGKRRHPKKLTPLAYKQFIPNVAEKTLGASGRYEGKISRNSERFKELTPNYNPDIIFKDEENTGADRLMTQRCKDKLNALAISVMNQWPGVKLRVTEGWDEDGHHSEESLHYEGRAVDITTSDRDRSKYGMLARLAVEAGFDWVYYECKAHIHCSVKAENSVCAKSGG
modifications: beta-(4-hydroxyphenyl) ethylmaleimide on thiol of Cys154, Cys169
- Potency (IC50) in C3H10T1/2 assay (alkaline phosphatase induction) [1]: 2 µg/mL

B21: mutant 21 (Shh C1II/A169C + N92C), Napth-modified (ligand)
chain: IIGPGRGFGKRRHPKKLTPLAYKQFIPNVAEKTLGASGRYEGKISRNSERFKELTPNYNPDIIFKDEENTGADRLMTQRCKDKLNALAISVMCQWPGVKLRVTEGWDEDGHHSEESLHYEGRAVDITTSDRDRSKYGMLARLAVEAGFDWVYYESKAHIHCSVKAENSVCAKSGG
modifications: N-(1-naphthyl) maleimide on thiol of Cys92, Cys169
- Potency (IC50) in C3H10T1/2 assay (alkaline phosphatase induction) [1]: 4 µg/mL

B22: mutant 21 (Shh C1II/A169C + N92C), NEM-modified (ligand)
chain: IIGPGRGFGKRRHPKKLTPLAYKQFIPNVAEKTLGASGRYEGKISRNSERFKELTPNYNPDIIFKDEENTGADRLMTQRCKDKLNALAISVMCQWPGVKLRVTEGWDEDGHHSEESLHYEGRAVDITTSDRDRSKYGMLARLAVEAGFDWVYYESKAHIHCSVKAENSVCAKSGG
modifications: N-ethyl maleimide on thiol of Cys92, Cys169
- Potency (IC50) in C3H10T1/2 assay (alkaline phosphatase induction) [1]: 2 µg/mL

B23: mutant 22 (Shh C1II/A169C + S154C), Napth-modified (ligand)
chain: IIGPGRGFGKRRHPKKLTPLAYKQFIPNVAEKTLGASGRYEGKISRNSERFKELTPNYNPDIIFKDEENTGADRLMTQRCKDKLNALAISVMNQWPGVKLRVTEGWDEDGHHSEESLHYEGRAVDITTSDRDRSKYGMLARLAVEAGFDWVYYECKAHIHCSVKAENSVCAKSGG
modifications: N-(1-naphthyl) maleimide on thiol of Cys154, Cys169
- Potency (IC50) in C3H10T1/2 assay (alkaline phosphatase induction) [1]: 2 µg/mL

B25: mutant 24 (Shh C1II/A169C + S112C), 20 K PEG (ligand)
chain: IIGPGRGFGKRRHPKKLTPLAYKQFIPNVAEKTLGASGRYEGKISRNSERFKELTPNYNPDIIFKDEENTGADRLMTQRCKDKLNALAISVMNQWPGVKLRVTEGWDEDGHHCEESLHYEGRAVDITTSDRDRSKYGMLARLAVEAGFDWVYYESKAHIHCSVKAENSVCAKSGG
modifications: 20 K PEG maleimide on thiol of Cys112, Cys169
- Potency (IC50) in C3H10T1/2 assay (alkaline phosphatase induction) [1]: 2 µg/mL

B28: mutant 21 (Shh C1II/A169C + N92C), Pyrene-modified (ligand)
chain: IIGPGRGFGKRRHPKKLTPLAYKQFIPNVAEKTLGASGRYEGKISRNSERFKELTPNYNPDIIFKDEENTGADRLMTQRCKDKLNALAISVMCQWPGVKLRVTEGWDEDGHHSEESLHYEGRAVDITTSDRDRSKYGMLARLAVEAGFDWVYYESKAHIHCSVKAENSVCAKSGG
modifications: N-(1-pyrenyl) maleimide on thiol of Cys92, Cys169
- Potency (IC50) in C3H10T1/2 assay (alkaline phosphatase induction) [1]: 3 µg/mL

B29: mutant 24 (Shh C1II/A169C + S112C), HPE-modified (ligand)
chain: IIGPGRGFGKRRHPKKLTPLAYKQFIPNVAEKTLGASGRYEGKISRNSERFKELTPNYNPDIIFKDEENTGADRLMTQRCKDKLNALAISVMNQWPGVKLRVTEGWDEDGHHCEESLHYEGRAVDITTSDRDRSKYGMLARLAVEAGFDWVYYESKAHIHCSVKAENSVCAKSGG
modifications: beta-(4-hydroxyphenyl) ethylmaleimide on thiol of Cys112, Cys169
- Potency (IC50) in C3H10T1/2 assay (alkaline phosphatase induction) [1]: 0.2 µg/mL

B31: mutant 22 (Shh C1II/A169C + S154C), unmodified (ligand)
chain: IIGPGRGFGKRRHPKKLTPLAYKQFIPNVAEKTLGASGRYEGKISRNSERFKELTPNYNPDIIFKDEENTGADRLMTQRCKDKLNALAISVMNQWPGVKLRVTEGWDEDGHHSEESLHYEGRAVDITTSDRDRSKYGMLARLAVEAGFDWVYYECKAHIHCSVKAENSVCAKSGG
- Potency (IC50) in C3H10T1/2 assay (alkaline phosphatase induction) [1]: 1 µg/mL

B32: mutant 21 (Shh C1II/A169C + N92C), 20 K PEG (ligand)
chain: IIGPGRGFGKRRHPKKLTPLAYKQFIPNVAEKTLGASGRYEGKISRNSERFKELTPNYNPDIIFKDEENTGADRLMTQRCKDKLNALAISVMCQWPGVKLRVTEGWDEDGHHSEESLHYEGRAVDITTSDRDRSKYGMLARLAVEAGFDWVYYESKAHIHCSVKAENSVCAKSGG
modifications: 20 K PEG maleimide on thiol of Cys92, Cys169
- Potency (IC50) in C3H10T1/2 assay (alkaline phosphatase induction) [1]: > 20 µg/mL

Other lines, results leading:

- Potency (IC50) in C3H10T1/2 assay (alkaline phosphatase induction) [1]: 0.3 µg/mL
B2: mutant 24 (Shh C1II/A169C + S112C), Napth-modified (ligand)
chain: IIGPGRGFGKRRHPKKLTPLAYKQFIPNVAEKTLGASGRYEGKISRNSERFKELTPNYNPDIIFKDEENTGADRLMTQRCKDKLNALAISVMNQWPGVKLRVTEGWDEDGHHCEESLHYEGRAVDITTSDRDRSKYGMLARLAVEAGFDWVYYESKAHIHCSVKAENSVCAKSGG
modifications: N-(1-naphthyl) maleimide on thiol of Cys112, Cys169

- Potency (IC50) in C3H10T1/2 assay (alkaline phosphatase induction) [1]: 0.2 µg/mL
B4: mutant 25 (Shh C1II/A169C + S133C), HPE-modified (ligand)
chain: not shown
modifications: beta-(4-hydroxyphenyl) ethylmaleimide on thiol of Cys133, Cys169

- Potency (IC50) in C3H10T1/2 assay (alkaline phosphatase induction) [1]: 3 µg/mL
B8: mutant 25 (Shh C1II/A169C + S133C), Pyrene-modified (ligand)
chain: not shown
modifications: N-(1-pyrenyl) maleimide on thiol of Cys133, Cys169

- IC50 in C3H10T1/2 assay [2]: 0.6 µg/mL
B9: mutant 44 (Shh C1II/A169C + E113C), 5 K PEG (ligand)
chain: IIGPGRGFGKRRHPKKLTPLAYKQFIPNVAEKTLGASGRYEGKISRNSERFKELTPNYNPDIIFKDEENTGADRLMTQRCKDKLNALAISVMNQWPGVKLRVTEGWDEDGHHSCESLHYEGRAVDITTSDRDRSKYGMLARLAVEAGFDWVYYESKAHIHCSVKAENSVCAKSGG
modifications: 5 K PEG maleimide on thiol of Cys113, Cys169

- IC50 in C3H10T1/2 assay [2]: 0.5 µg/mL
B10: mutant 45 (Shh C1II/A169C + G146C), 5 K PEG (ligand)
chain: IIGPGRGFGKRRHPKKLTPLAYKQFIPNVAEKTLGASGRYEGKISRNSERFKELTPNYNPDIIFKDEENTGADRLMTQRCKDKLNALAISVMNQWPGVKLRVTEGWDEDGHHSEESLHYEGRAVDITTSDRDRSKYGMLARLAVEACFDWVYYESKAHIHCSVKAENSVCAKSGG
modifications: 5 K PEG maleimide on thiol of Cys146, Cys169

- Potency (IC50) in C3H10T1/2 assay (alkaline phosphatase induction) [1]: 0.4 µg/mL
B12: mutant 24 (Shh C1II/A169C + S112C), unmodified (ligand)
chain: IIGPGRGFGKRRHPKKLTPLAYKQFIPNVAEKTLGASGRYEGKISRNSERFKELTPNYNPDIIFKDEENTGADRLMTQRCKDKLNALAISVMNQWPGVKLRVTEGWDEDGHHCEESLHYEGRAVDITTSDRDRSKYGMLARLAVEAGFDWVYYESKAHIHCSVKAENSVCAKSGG

- IC50 in C3H10T1/2 assay [2]: 0.3 µg/mL
B15: mutant 45 (Shh C1II/A169C + G146C), unmodified (ligand)
chain: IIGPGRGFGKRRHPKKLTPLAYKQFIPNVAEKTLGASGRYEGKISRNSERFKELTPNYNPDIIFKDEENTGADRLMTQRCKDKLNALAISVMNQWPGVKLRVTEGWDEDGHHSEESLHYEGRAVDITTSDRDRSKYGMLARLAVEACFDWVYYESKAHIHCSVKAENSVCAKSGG

- Potency (IC50) in C3H10T1/2 assay (alkaline phosphatase induction) [1]: 0.2 µg/mL
B16: mutant 25 (Shh C1II/A169C + S133C), NEM-modified (ligand)
chain: not shown
modifications: N-ethyl maleimide on thiol of Cys133, Cys169

- Potency (IC50) in C3H10T1/2 assay (alkaline phosphatase induction) [1]: 0.25 µg/mL
B19: mutant 24 (Shh C1II/A169C + S112C), Pyrene-modified (ligand)
chain: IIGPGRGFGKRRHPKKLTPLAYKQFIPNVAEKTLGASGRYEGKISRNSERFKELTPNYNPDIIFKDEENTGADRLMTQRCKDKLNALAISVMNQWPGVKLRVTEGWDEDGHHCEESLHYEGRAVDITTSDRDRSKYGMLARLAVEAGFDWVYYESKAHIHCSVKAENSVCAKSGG
modifications: N-(1-pyrenyl) maleimide on thiol of Cys112, Cys169

- IC50 in C3H10T1/2 assay [2]: 1 µg/mL
B20: mutant 44 (Shh C1II/A169C + E113C), unmodified (ligand)
chain: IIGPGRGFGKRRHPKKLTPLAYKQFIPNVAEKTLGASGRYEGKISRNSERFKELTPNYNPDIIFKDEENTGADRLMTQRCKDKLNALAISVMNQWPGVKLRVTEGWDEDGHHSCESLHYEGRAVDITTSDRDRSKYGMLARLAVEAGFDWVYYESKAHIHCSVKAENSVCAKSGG

- Potency (IC50) in C3H10T1/2 assay (alkaline phosphatase induction) [1]: 2 µg/mL
B24: mutant 25 (Shh C1II/A169C + S133C), 20 K PEG (ligand)
chain: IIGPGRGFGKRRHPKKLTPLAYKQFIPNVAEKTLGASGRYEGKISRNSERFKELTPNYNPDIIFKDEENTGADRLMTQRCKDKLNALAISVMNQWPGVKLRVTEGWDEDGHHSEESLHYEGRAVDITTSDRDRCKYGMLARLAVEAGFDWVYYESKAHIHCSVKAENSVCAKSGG
modifications: 20 K PEG maleimide on thiol of Cys133, Cys169

- Potency (IC50) in C3H10T1/2 assay (alkaline phosphatase induction) [1]: 0.4 µg/mL
B26: mutant 25 (Shh C1II/A169C + S133C), unmodified (ligand)
chain: not shown

- Potency (IC50) in C3H10T1/2 assay (alkaline phosphatase induction) [1]: 0.6 µg/mL
B27: mutant 25 (Shh C1II/A169C + S133C), Napth-modified (ligand)
chain: not shown
modifications: N-(1-naphthyl) maleimide on thiol of Cys133, Cys169

- Potency (IC50) in C3H10T1/2 assay (alkaline phosphatase induction) [1]: 2 µg/mL
B30: mutant 25 (Shh C1II/A169C + S133C), 5 K PEG (ligand)
chain: not shown
modifications: 5 K PEG maleimide on thiol of Cys133, Cys169

Source: US20040038876A1 (published 2004)
